Numbering of substitutions follows the chain as printed.
Key:
Assay in all cases: SPR
FcgRIIIa F = FcgRIIIa F (human, UniProt P08637)
FcgRIIa H = biological target: T1, FcgRIIa H (human, UniProt P12318)
T1 chain: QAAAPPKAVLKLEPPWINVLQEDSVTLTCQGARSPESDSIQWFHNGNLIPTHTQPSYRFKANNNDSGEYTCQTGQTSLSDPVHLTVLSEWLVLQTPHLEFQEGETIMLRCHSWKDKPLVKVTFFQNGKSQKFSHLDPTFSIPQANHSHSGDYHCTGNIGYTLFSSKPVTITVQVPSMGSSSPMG

FcgRIIa R = biological target: T2, FcgRIIa R (human, UniProt P12318)
T2 chain: T1 chain with H134R

FcgRIa = biological target: T3, FcgRIa (human, UniProt P12314)
T3 chain: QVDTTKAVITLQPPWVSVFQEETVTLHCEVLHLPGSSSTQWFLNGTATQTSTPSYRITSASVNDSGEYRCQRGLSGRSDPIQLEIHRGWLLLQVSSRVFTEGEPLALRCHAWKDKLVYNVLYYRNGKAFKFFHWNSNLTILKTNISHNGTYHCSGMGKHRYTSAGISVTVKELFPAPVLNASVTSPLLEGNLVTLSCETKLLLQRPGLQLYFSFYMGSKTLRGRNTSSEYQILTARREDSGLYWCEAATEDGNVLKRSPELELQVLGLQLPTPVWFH

FcgRIIb = biological target: T4, FcgRIIb (human, UniProt P31994)
T4 chain: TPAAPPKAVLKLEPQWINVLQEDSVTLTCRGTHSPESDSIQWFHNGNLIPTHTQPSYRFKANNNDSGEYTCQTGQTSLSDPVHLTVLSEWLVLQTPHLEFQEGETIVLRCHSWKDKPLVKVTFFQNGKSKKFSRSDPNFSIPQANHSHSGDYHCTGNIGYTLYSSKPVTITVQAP

FcgRIIIa V = FcgRIIIa V (human, UniProt P08637)
Chain of FcgRIIIa V (P08637 17-208 F176V): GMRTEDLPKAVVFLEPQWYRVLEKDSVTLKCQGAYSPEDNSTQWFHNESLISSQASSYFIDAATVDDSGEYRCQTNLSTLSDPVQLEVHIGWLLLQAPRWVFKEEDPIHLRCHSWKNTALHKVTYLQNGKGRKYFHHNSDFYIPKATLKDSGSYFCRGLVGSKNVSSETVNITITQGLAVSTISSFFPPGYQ

Chain of FcgRIIIa F (P08637 17-208): as the sequence (P08637 17-208 F176V) above, with V160F counted along it

B1: GpH7-Kn032/GpH7-Hl032/GpL16-k0 (antibody)
chain 1: QVQLVQSGAEVKKPGASVTVSCKASGYTFTDYEMHWIRQPPGEGLEWIGAIDPKTGDTAYSESFQDRVTLTADKSTSTAYMELSSLTSEDTAVYYCTRFYSYTYWGQGTLVTVSSASTKGPSVFPLAPSSKSTSGGTAALGCLVKDYFPEPVTVSWNSGALTSGVHTFPAVLQSSGLYSLSSVVTVPSSSLGTQTYICNVNHKPSNTKVDKKVEPKSCDKTHTCPPCPAPELLGGPDVFLFPPKPKDTLMISRTPEVTCVVVDVSHEDPEVKFNWYVDGVEVHNAKTKPREEQYNSTYRVVSVLTVLHQDWLNGKEYKCKVSNKALPLPEEKTISKAKGQPREPQVCTLPPSRDELTKNQVSLWCLVKGFYPSDIAVEWESNGQPENNYKTTPPVLDSDGSFFLYSKLTVDKSRWQQGNVFSCSVMHEALHNHYTQKSLSLSP
chain 2: B1 chain 1 with C347Y, D354C, W364S, L366A, Y405V
chain 3: DIVMTQSPLSLPVTPGEPASISCQASESLVHSNRNTYLHWYLQKPGQSPQLLIYKVSNRFSGVPDRFSGSGSGTDFTLKISRVEAEDVGVYYCSQNTHVPPTFGQGTKVEIERTVAAPSVFIFPPSDEQLKSGTASVVCLLNNFYPREAKVQWKVDNALQSGNSQESVTEQDSKDSTYSLSSTLTLSKADYEKHKVYACEVTHQGLSSPVTKSFNRGEC
- Kd (FcgRIIIa F): 4.1 nM
- Kd (FcgRIIa H): 470 nM
- Kd (FcgRIIa R): 250 nM
- Kd (FcgRIa): 0.0028 nM
- Kd (FcgRIIb): 440 nM
- Kd (FcgRIIIa V): 1.2 nM

B2: GpH7-Kn033/GpH7-Hl033/GpL16-k0 (antibody)
chain 1: not shown
chain 2: not shown
chain 3: B1 chain 3
- Kd (FcgRIIIa F): 1600 nM
- Kd (FcgRIIa H): 590 nM
- Kd (FcgRIIa R): 740 nM
- Kd (FcgRIa): 0.069 nM
- Kd (FcgRIIb): 3600 nM
- Kd (FcgRIIIa V): 220 nM

B3: GpH7-Kn045/GpH7-Hl055/GpL16-k0 (antibody)
chain 1: B1 chain 1 with L232Y, L233Y, G234A, D237S, H266D, S296A, L328A, E330I
chain 2: B1 chain 1 with G234A, Q293L, L328M, C347Y, D354C, W364S, L366A, Y405V
chain 3: B1 chain 3
- Kd (FcgRIIIa F): 1.6 nM
- Kd (FcgRIIa H): 29 nM
- Kd (FcgRIIa R): 13 nM
- Kd (FcgRIa): 0.019 nM
- Kd (FcgRIIb): 240 nM
- Kd (FcgRIIIa V): 0.72 nM
